Laboratory results published in article PMC9873573, “Cryo-EM structure of the respiratory I + III2 supercomplex from Arabidopsis thaliana at 2 Å resolution” (Nature Plants, 2022).

B1: complex I subunit B14.7 (natural protein, UniProt O48528 1-159, looked up)
chain: MDPAEMRYLEEEDGPLMKTIKGSITGFGAGTIYGTILATWKDVPRVERNVALPGLIRTLKMMGTHGLTFAAIGGVYIGVEQLVQNFRSKRDFYNGAIGGFVAGASVLGYRARSIPTAIAAGATLAVTSALIDSGGQTTRVDNGREYYPYTVEKRAEADS
notes: subunit B14.7 of Arabidopsis thaliana mitochondrial complex I (membrane arm); absent from the earlier structures of free plant complex I; also called B14.7 kDa subunit

Experiments:
[1] = target: T1, complex I, FMN / NADH site (51 kDa subunit), in the I + III2 supercomplex (Arabidopsis thaliana, UniProt Q9FNN5); test: cryo-EM structure, […] Å; assay type: binding; conditions: co-purified
T1 construct: gene At5g08530; native supercomplex; tested as whole I + III2 assembly of 68 subunits
T1 sequence (Q9FNN5 31-486): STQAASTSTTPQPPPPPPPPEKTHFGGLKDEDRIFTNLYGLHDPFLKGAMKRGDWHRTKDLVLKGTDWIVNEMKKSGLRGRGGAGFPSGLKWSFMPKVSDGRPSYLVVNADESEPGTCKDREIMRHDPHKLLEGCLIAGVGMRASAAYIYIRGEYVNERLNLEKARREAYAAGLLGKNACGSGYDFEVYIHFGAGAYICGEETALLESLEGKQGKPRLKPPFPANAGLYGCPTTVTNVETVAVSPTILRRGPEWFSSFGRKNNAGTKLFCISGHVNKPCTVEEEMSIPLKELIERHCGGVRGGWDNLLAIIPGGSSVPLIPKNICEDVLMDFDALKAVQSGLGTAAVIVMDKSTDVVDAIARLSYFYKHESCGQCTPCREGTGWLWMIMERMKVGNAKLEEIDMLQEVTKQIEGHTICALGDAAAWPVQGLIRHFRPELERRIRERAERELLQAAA

[2] = target: T2, complex I core subunit ND5 (Arabidopsis thaliana (endogenous in …, UniProt P29388 1-669)); test: cryo-EM structure; native I + III2 supercomplex isolated from digitonin-solubilised Arabidopsis mitochondria (sucrose gradient, Superose 6 in GDN); 30 mM Tris-HCl pH 7.4, 60 mM NaCl, 0.02% GDN; 2.36 Å for the whole supercomplex, 2.03 Å after multibody refinement, 1.9 Å after density modification; conditions: both partners purified
T2 sequence (looked up): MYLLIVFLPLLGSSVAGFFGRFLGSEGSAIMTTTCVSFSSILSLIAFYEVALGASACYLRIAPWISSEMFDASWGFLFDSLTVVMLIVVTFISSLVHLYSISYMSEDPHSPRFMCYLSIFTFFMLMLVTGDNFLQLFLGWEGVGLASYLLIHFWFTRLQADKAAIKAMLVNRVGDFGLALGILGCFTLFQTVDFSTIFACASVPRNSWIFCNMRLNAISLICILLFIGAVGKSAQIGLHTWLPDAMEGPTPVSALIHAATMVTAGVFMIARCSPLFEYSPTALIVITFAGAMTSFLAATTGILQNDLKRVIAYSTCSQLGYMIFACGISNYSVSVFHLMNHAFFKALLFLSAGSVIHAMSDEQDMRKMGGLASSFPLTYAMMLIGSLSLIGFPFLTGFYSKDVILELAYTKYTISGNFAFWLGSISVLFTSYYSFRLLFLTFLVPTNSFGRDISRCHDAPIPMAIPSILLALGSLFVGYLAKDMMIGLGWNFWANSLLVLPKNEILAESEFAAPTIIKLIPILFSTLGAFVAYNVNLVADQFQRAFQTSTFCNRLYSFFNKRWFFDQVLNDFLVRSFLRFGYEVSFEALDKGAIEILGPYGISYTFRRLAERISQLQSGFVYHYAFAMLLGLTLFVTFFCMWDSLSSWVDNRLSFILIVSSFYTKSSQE

[3] = target: T3, mitochondrial processing peptidase subunit MPP-α-1 of complex III (Arabidopsis thaliana (endogenous in …, UniProt Q9ZU25 60-503)); test: as above; conditions: both partners purified
T3 construct: MPP-α, isoform 1 (the dominant isoform, fitted to the map), subunit of Arabidopsis thaliana complex III
T3 sequence (looked up): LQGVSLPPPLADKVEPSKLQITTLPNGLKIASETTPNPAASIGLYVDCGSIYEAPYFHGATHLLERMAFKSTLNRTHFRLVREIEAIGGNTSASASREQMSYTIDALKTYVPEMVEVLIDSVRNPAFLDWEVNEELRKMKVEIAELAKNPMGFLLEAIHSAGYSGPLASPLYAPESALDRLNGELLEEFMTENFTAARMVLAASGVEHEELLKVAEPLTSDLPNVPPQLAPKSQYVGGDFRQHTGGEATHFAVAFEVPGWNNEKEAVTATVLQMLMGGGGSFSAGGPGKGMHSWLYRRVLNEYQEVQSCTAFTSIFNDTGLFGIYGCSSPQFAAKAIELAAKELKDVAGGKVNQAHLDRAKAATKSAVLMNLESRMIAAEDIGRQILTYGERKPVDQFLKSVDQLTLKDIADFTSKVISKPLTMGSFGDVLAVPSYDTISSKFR

[4] = target: T4, mitochondrial processing peptidase subunit MPP-β of complex III (Arabidopsis thaliana (endogenous in …, UniProt Q42290 79-531)); test: as above; conditions: both partners purified
T4 construct: MPP-β, subunit of Arabidopsis thaliana complex III
T4 sequence (looked up): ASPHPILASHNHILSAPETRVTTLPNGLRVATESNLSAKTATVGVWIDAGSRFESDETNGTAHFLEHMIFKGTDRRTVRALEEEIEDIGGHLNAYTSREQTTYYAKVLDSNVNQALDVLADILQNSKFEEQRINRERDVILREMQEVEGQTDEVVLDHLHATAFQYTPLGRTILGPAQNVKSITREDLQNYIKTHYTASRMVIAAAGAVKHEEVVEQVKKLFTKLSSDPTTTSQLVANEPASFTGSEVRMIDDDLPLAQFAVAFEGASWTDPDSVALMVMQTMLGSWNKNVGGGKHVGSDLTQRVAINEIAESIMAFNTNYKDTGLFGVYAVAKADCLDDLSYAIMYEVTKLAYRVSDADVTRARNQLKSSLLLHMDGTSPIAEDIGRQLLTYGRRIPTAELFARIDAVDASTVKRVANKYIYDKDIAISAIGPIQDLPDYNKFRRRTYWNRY

complex I subunit B14.7 = target: B1; test: as above; conditions: both partners purified

With `Cc1cc2nc3c(=O)[nH]c(=O)nc-3n(C[C@H](O)[C@H](O)[C@H](O)COP(=O)(O)O)c2cc1C` [FMN] the “cryo-EM structure, 2 Å” value [1] was “Complex I: FMN (Flavin mononucleotide), N1a, N1b, N2, N3”.

B1: binds [2].

B2: complex I subunit B22 (natural protein, UniProt Q945M1 1-117, looked up)
chain: MSGVSTAAYFARRAAQKERVRILYRRALKDTLNWAVHRHIFYRDASDLREKFNVNQDVEDVDRIDKLIAHGEAEYNKWRHPDPYIVPWAPGGSKFCRNPTPPAGIEIVYNYGLEDNP
notes: accessory subunit B22 of Arabidopsis thaliana mitochondrial complex I (membrane arm)
B2: binds [3]; binds [4].

B3: complex III subunit QCR8-1 (natural protein, UniProt Q9SG91 1-72, looked up)
chain: MGKQPVKLKAVVYALSPFQQKIMTGLWKDLPEKIHHKVSENWISATLLVTPVVGTYWYAQYFKEQEKLEHRF
notes: QCR8, isoform 1 (the dominant isoform, fitted to the map), accessory subunit of Arabidopsis thaliana complex III
B3: binds (complex I subunit B14.7).

B4: complex III subunit QCR6-1 (natural protein, UniProt Q0WWE3 1-69, looked up)
chain: MADDEVVDPKKYLEESCKPKCVKPLLEYQACVKRIQGDDSGHKHCTGQYFDYWQCIDKCVAPKLFAKLK
notes: QCR6, isoform 1 (the dominant isoform, fitted to the map), accessory subunit of Arabidopsis thaliana complex III
B4: binds (complex I subunit B14.7).
